In general, EC50 refers to the midpoint of the concentration-response curve. Read a low EC50 as higher potency in that assay.

The results in this text go back to patent US20090252729A1.

Test [1] has as its target human FcRIII-GST (CD16a, V158) (human) (UniProt P08637). The test is described as follows: Alphascreen assay, human FcγR CD16a. (Alpha assays give light when donor and acceptor beads are brought close together.)
Test [2] has as its target cynomolgus FcγR III (CD16a) (cynomolgus) (UniProt Q8SPW2). The test is described as follows: Alphascreen assay, cynomolgus FcγR CD16a.
Test [3] deals with cynomolgus FcγR IIa (CD32a) (cynomolgus). The test is described as follows: Alphascreen assay, cynomolgus FcγR CD32a (R).

Chain of human FcRIII-GST (CD16a, V158) (human) (P08637 17-208 F176V limits assumed): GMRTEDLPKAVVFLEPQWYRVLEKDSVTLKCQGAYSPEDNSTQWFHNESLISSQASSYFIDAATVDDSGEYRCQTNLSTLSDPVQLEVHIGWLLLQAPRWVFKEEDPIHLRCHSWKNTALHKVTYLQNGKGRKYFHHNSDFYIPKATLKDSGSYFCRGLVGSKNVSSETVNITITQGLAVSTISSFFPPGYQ
Chain of cynomolgus FcγR III (CD16a) (cynomolgus) (Q8SPW2 17-208 limits assumed): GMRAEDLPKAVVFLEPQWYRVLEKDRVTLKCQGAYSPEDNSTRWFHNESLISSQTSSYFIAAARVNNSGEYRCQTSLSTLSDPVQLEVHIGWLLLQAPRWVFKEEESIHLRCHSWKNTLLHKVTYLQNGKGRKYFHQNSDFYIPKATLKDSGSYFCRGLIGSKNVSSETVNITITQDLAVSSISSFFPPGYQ

With Agly 5c8 IgG1 (antibody), the figures for the EC50 in test [1], in test [2] and in test [3] were 1840 nM, 2320 nM and 1170 nM, respectively.
